{"source": "the supplement of paper PMC10567573", "parents": {"B1": {"name": "DVL3 (parent)", "chain": "SDVVDWLYHNVEGFTDRREARKYA"}, "B2": {"name": "GMCL1 (parent)", "chain": "FCYCAGSHKRKRSSGSFCYCHPDS"}}, "data": [{"variants_of": "B1", "test": "protein stability index of a GFP-peptide fusion (GPS, HEK-293T) (PSI 1-6); higher = more stable", "conditions": "c terminus: a fixed tail appended", "values": [{"variant": "SDMVDWLYHNVEGFTDRREARKYA", "protein stability index": 3.85}, {"variant": "SDCVDWLYHNVEGFTDRREARKYA", "protein stability index": 3.69}, {"variant": "SDQVDWLYHNVEGFTDRREARKYA", "protein stability index": 4.64}, {"variant": "SDNVDWLYHNVEGFTDRREARKYA", "protein stability index": 4.22}, {"variant": "SDIVDWLYHNVEGFTDRREARKYA", "protein stability index": 2.98}, {"variant": "SDPVDWLYHNVEGFTDRREARKYA", "protein stability index": 4.24}, {"variant": "SDEVDWLYHNVEGFTDRREARKYA", "protein stability index": 5.17}, {"variant": "SDLVDWLYHNVEGFTDRREARKYA", "protein stability index": 3.15}, {"variant": "SDFVDWLYHNVEGFTDRREARKYA", "protein stability index": 2.07}, {"variant": "SDAVDWLYHNVEGFTDRREARKYA", "protein stability index": 3.98}, {"variant": "SDHVDWLYHNVEGFTDRREARKYA", "protein stability index": 3.39}, {"variant": "SDDVDWLYHNVEGFTDRREARKYA", "protein stability index": 4.59}, {"variant": "SKVVDWLYHNVEGFTDRREARKYA", "protein stability index": 2.73}, {"variant": "SFVVDWLYHNVEGFTDRREARKYA", "protein stability index": 1.9}, {"variant": "SRVVDWLYHNVEGFTDRREARKYA", "protein stability index": 2.23}, {"variant": "SNVVDWLYHNVEGFTDRREARKYA", "protein stability index": 3.36}, {"variant": "SEVVDWLYHNVEGFTDRREARKYA", "protein stability index": 3.01}, {"variant": "SAVVDWLYHNVEGFTDRREARKYA", "protein stability index": 1.85}, {"variant": "SLVVDWLYHNVEGFTDRREARKYA", "protein stability index": 2.12}, {"variant": "SPVVDWLYHNVEGFTDRREARKYA", "protein stability index": 2.62}, {"variant": "SSVVDWLYHNVEGFTDRREARKYA", "protein stability index": 2.74}, {"variant": "SWVVDWLYHNVEGFTDRREARKYA", "protein stability index": 1.64}, {"variant": "SMVVDWLYHNVEGFTDRREARKYA", "protein stability index": 2.09}, {"variant": "SGVVDWLYHNVEGFTDRREARKYA", "protein stability index": 2.89}, {"variant": "SVVVDWLYHNVEGFTDRREARKYA", "protein stability index": 2.72}, {"variant": "SCVVDWLYHNVEGFTDRREARKYA", "protein stability index": 2.16}, {"variant": "SIVVDWLYHNVEGFTDRREARKYA", "protein stability index": 2.46}, {"variant": "SHVVDWLYHNVEGFTDRREARKYA", "protein stability index": 2.91}, {"variant": "STVVDWLYHNVEGFTDRREARKYA", "protein stability index": 2.9}, {"variant": "SYVVDWLYHNVEGFTDRREARKYA", "protein stability index": 2.26}, {"variant": "RDVVDWLYHNVEGFTDRREARKYA", "protein stability index": 2.52}, {"variant": "KDVVDWLYHNVEGFTDRREARKYA", "protein stability index": 2}, {"variant": "VDVVDWLYHNVEGFTDRREARKYA", "protein stability index": 3.5}, {"variant": "IDVVDWLYHNVEGFTDRREARKYA", "protein stability index": 2}, {"variant": "EDVVDWLYHNVEGFTDRREARKYA", "protein stability index": 3.76}, {"variant": "GDVVDWLYHNVEGFTDRREARKYA", "protein stability index": 3.78}, {"variant": "HDVVDWLYHNVEGFTDRREARKYA", "protein stability index": 3.27}, {"variant": "LDVVDWLYHNVEGFTDRREARKYA", "protein stability index": 3.51}, {"variant": "TDVVDWLYHNVEGFTDRREARKYA", "protein stability index": 3.1}, {"variant": "QDVVDWLYHNVEGFTDRREARKYA", "protein stability index": 2.9}, {"variant": "FDVVDWLYHNVEGFTDRREARKYA", "protein stability index": 2.23}, {"variant": "NDVVDWLYHNVEGFTDRREARKYA", "protein stability index": 3.42}, {"variant": "DDVVDWLYHNVEGFTDRREARKYA", "protein stability index": 3.92}, {"variant": "CDVVDWLYHNVEGFTDRREARKYA", "protein stability index": 2.71}, {"variant": "PDVVDWLYHNVEGFTDRREARKYA", "protein stability index": 2.15}]}, {"variants_of": "B2", "test": "protein stability index of a GFP-peptide fusion (GPS, HEK-293T) (PSI 1-6); higher = more stable", "conditions": "c terminus: a fixed tail appended", "values": [{"variant": "FCYCAGSHKRKRSSGSFCYCHPDN", "protein stability index": 2.12}, {"variant": "FCYCAGSHKRKRSSGSFCYCHPDD", "protein stability index": 1.87}, {"variant": "FCYCAGSHKRKRSSGSFCYCHPDR", "protein stability index": 2.28}, {"variant": "FCYCAGSHKRKRSSGSFCYCHPDW", "protein stability index": 1.38}, {"variant": "FCYCAGSHKRKRSSGSFCYCHPDL", "protein stability index": 1.91}, {"variant": "FCYCAGSHKRKRSSGSFCYCHPDT", "protein stability index": 2.02}, {"variant": "FCYCAGSHKRKRSSGSFCYCHPDE", "protein stability index": 2.51}, {"variant": "FCYCAGSHKRKRSSGSFCYCHPDI", "protein stability index": 2.03}, {"variant": "FCYCAGSHKRKRSSGSFCYCHPDQ", "protein stability index": 2.9}, {"variant": "FCYCAGSHKRKRSSGSFCYCHPDH", "protein stability index": 2.09}, {"variant": "FCYCAGSHKRKRSSGSFCYCHPDG", "protein stability index": 2.46}, {"variant": "FCYCAGSHKRKRSSGSFCYCHPDK", "protein stability index": 2.44}, {"variant": "FCYCAGSHKRKRSSGSFCYCHPDC", "protein stability index": 1.51}, {"variant": "FCYCAGSHKRKRSSGSFCYCHPDP", "protein stability index": 1.88}, {"variant": "FCYCAGSHKRKRSSGSFCYCHPDM", "protein stability index": 1.78}, {"variant": "FCYCAGSHKRKRSSGSFCYCHPDV", "protein stability index": 2.12}, {"variant": "FCYCAGSHKRKRSSGSFCYCHPDA", "protein stability index": 1.94}, {"variant": "FCYCAGSHKRKRSSGSFCYCHPDF", "protein stability index": 1.61}, {"variant": "FCYCAGSHKRKRSSGSFCYCHPDY", "protein stability index": 1.84}, {"variant": "FCYCAGSHKRKRSSGSFCYCHPQS", "protein stability index": 2.34}, {"variant": "FCYCAGSHKRKRSSGSFCYCHPGS", "protein stability index": 2.27}, {"variant": "FCYCAGSHKRKRSSGSFCYCHPYS", "protein stability index": 2.06}, {"variant": "FCYCAGSHKRKRSSGSFCYCHPES", "protein stability index": 2.13}, {"variant": "FCYCAGSHKRKRSSGSFCYCHPWS", "protein stability index": 2.16}, {"variant": "FCYCAGSHKRKRSSGSFCYCHPTS", "protein stability index": 3.04}, {"variant": "FCYCAGSHKRKRSSGSFCYCHPMS", "protein stability index": 2.39}, {"variant": "FCYCAGSHKRKRSSGSFCYCHPFS", "protein stability index": 2.06}, {"variant": "FCYCAGSHKRKRSSGSFCYCHPPS", "protein stability index": 2.86}, {"variant": "FCYCAGSHKRKRSSGSFCYCHPSS", "protein stability index": 1.94}, {"variant": "FCYCAGSHKRKRSSGSFCYCHPAS", "protein stability index": 1.35}, {"variant": "FCYCAGSHKRKRSSGSFCYCHPHS", "protein stability index": 1.88}, {"variant": "FCYCAGSHKRKRSSGSFCYCHPKS", "protein stability index": 2.42}, {"variant": "FCYCAGSHKRKRSSGSFCYCHPIS", "protein stability index": 1.83}, {"variant": "FCYCAGSHKRKRSSGSFCYCHPNS", "protein stability index": 1.92}, {"variant": "FCYCAGSHKRKRSSGSFCYCHPVS", "protein stability index": 1.44}, {"variant": "FCYCAGSHKRKRSSGSFCYCHPRS", "protein stability index": 1.99}, {"variant": "FCYCAGSHKRKRSSGSFCYCHPCS", "protein stability index": 1.28}, {"variant": "FCYCAGSHKRKRSSGSFCYCHPLS", "protein stability index": 1.98}, {"variant": "FCYCAGSHKRKRSSGSFCYCHTDS", "protein stability index": 1.32}, {"variant": "FCYCAGSHKRKRSSGSFCYCHVDS", "protein stability index": 1.96}, {"variant": "FCYCAGSHKRKRSSGSFCYCHNDS", "protein stability index": 2.69}, {"variant": "FCYCAGSHKRKRSSGSFCYCHQDS", "protein stability index": 1.91}, {"variant": "FCYCAGSHKRKRSSGSFCYCHMDS", "protein stability index": 1.85}, {"variant": "FCYCAGSHKRKRSSGSFCYCHLDS", "protein stability index": 1.63}, {"variant": "FCYCAGSHKRKRSSGSFCYCHWDS", "protein stability index": 2.27}, {"variant": "FCYCAGSHKRKRSSGSFCYCHYDS", "protein stability index": 2.02}, {"variant": "FCYCAGSHKRKRSSGSFCYCHKDS", "protein stability index": 2.09}, {"variant": "FCYCAGSHKRKRSSGSFCYCHRDS", "protein stability index": 2.1}, {"variant": "FCYCAGSHKRKRSSGSFCYCHSDS", "protein stability index": 2.53}]}]}
